The results in this text go back to patent publication US20230137032A1 (GlaxoSmithKline, published 2023).

Assay [1] concerns the target T1, recombinant human BCMA, commercial (US Biological, B0410) (human, UniProt Q02223 5-54, limits assumed).
T1 construct: also called commercial human BCMA; Human commercial BCMA
T1 chain (looked up): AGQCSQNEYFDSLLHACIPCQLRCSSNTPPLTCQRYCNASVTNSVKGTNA
In words: Biacore T100, antibody captured on Protein A, 37C.

For assay [2], the target named is T2, recombinant cyno BCMA, in house material (cyno, UniProt A0A2K5UD97 4-52).
T2 construct: also called Cyno in house BCMA
T2 sequence (A0A2K5UD97 entry or part of it): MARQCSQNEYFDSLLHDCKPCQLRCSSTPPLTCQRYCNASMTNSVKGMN
In words: Biacore T100, antibody captured on Protein A, 37C.

Assay [3] deals with T3, recombinant human BCMA, in house material (human, UniProt Q02223 4-53, limits assumed).
T3 construct: also called Human in house BCMA; In house human BCMA
Put plainly: ProteOn SPR run 1, antibody captured on Protein A, 25C.

Assay [4] concerns the target T2, recombinant cyno BCMA, in house material. Described as above.
For assay [5], the target named is T4, human BCMA expressed on cells (human, UniProt Q02223 1-184).
T4 construct: whole, on cells; also called human BCMA HEK293; ARH77-hBCMA 10B5 BCMA expressing transfectant cells
T4 sequence (looked up): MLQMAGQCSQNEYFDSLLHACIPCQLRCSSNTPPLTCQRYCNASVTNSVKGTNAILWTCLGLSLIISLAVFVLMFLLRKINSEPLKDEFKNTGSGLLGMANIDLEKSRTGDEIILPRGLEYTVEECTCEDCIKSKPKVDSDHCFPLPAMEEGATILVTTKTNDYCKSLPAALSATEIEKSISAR
Put plainly: FACS on ARH77-hBCMA 10B5 transfectant cells, PE anti-human IgG, MFI. The method, then:
Cells were then washed with FACS buffer (PBS+0.5% BSA+0.1% sodium azide) to remove unbound antibody. Cells were incubated with a secondary PE labelled anti-human IgG antibody for 15 minutes at RT and then washed with FACS buffer to remove unbound antibody. Cells were analysed by FACS and mean fluorescence intensity (MFI) values measured to determine binding.

Assay [6] has as its target T2, recombinant cyno BCMA, in house material. Put plainly: ProteOn SPR run 2, antibody captured on Protein A, 25C.

B1: CA8 humanised J7M1 (antibody, human IgG1, kappa, V domains shown)
VH: QVQLVQSGAEVKKPGSSVKVSCKASGYTFTNYWMHWVRQAPGQGLEWMGATYRGHSDTYYNQKFKGRVTITADKSTSTAYMELSSLRSEDTAVYYCARGAIYDGYDVLDNWGQGTLVTVSS
VL: DIQMTQSPSSLSASVGDRVTITCSASQDISNYLNWYQQKPGKAPKLLIYYTSNLHSGVPSRFSGSGSGTDYTLTISSLQPEDFATYYCQQYRKLPWTFGQGTKLEIKR
notes: Humanised CA8, heavy chain J7 with light chain M1, human IgG1 kappa; also called CA8 J7M1
What is called Kd is the equilibrium constant for the complex coming apart. For the molecule B1, the Kd turned out to be 0.056 nM in assay [1] and 1.06 nM in assay [2].

B2: CA8 humanised J8M1 (antibody, human IgG1, kappa, V domains shown)
VH: QVQLVQSGAEVKKPGSSVKVSCKASGYTFTNYWMHWVRQAPGQGLEWMGATYRGHSDTYYNQKFKGRVTITADKSTSTAYMELSSLRSEDTAVYYCTRGAIYDGYDVLDNWGQGTLVTVSS
VL: DIQMTQSPSSLSASVGDRVTITCSASQDISNYLNWYQQKPGKAPKLLIYYTSNLHSGVPSRFSGSGSGTDYTLTISSLQPEDFATYYCQQYRKLPWTFGQGTKLEIKR
notes: Humanised CA8, heavy chain J8 with light chain M1, human IgG1 kappa; also called CA8 J8M1
B2: the Kd in assay [1] was found to be 0.05 nM; in assay [2], 1.28 nM.

B3: CA8 humanised J7M2 (antibody, human IgG1, kappa, V domains shown)
VH: QVQLVQSGAEVKKPGSSVKVSCKASGYTFTNYWMHWVRQAPGQGLEWMGATYRGHSDTYYNQKFKGRVTITADKSTSTAYMELSSLRSEDTAVYYCARGAIYDGYDVLDNWGQGTLVTVSS
VL: DIQLTQSPSSLSASVGDRVTITCSASQDISNYLNWYQQKPGKAPELVIYYTSNLHSGVPSRFSGSGSGTDYTLTISSLQPEDFATYYCQQYRKLPWTFGQGTKLEIKR
notes: Humanised CA8, heavy chain J7 with light chain M2, human IgG1 kappa; also called CA8 J7M2
Take B3: the Kd in assay [1] amounted to 0.057 nM; in assay [2] it was 1.29 nM.

B4: CA8 humanised J7M0 (antibody, human IgG1, kappa, V domains shown)
VH: QVQLVQSGAEVKKPGSSVKVSCKASGYTFTNYWMHWVRQAPGQGLEWMGATYRGHSDTYYNQKFKGRVTITADKSTSTAYMELSSLRSEDTAVYYCARGAIYDGYDVLDNWGQGTLVTVSS
VL: DIQMTQSPSSLSASVGDRVTITCSASQDISNYLNWYQQKPGKAPKLLIYYTSNLHSGVPSRFSGSGSGTDFTLTISSLQPEDFATYYCQQYRKLPWTFGQGTKLEIKR
notes: Humanised CA8, heavy chain J7 with light chain M0, human IgG1 kappa; also called CA8 J7M0
With B4, the Kd came out at 0.064 nM in assay [1] and 1.14 nM in assay [2].

B5: S307118G03 humanised H4L1 (antibody, human IgG1, kappa, V domains shown)
VH: QVQLVQSGAEVKKPGSSVKVSCKASGYTFTDYYMKWVRQAPGQGLEWMGEIYPNNGGITYNQKFKGRVTITADKSTSTAYMELSSLRSEDTAVYYCADGYEFVYWGQGTLVTVSS
VL: DIQMTQSPSSLSASVGDRVTITCSASQGISNYLNWYQQKPGKAPKLLIYYTSSLHSGVPSRFSGSGSGTDYTLTISSLQPEDFATYYCQQYSKLPWTFGQGTKLEIKR
notes: Humanised, human IgG1 kappa
Consider B5, for which the results for the binding result in assay [3] and in assay [4] were “no binding (tested: up to 256 nM)” and “no binding”, respectively.

B6: CA8 humanised J8M0 (antibody, human IgG1, kappa, V domains shown)
VH: QVQLVQSGAEVKKPGSSVKVSCKASGYTFTNYWMHWVRQAPGQGLEWMGATYRGHSDTYYNQKFKGRVTITADKSTSTAYMELSSLRSEDTAVYYCTRGAIYDGYDVLDNWGQGTLVTVSS
VL: DIQMTQSPSSLSASVGDRVTITCSASQDISNYLNWYQQKPGKAPKLLIYYTSNLHSGVPSRFSGSGSGTDFTLTISSLQPEDFATYYCQQYRKLPWTFGQGTKLEIKR
notes: Humanised CA8, heavy chain J8 with light chain M0, human IgG1 kappa; also called CA8 J8M0
As to B6, the Kd in assay [1] stood at 0.052 nM; in assay [2] it was 1.08 nM.

B7: S307118G03 humanised H2L1 (antibody, human IgG1, kappa, V domains shown)
VH: QVQLVQSGAEVKKPGSSVKVSCKASGYTFTDYYMKWVRQAPGQGLEWMGEIYPNNGGITYNQKFKGRVTITADKSTSTAYMELSSLRSEDTAVYYCANGYEFVYWGQGTLVTVSS
VL: DIQMTQSPSSLSASVGDRVTITCSASQGISNYLNWYQQKPGKAPKLLIYYTSSLHSGVPSRFSGSGSGTDYTLTISSLQPEDFATYYCQQYSKLPWTFGQGTKLEIKR
notes: Humanised, human IgG1 kappa
B7: the Kd in assay [3] is 6.37 nM. Besides, the binding result in assay [4] is “no binding”.

B8: CA8 humanised J9M2 (antibody, human IgG1, kappa, V domains shown)
VH: QVQLVQSGAEVKKPGSSVKVSCKGSGYTFTNYWMHWVRQAPGQGLEWIGATYRGHSDTYYNQKFKGRATLTADTSTSTAYMELSSLRSEDTAVYYCTRGAIYDGYDVLDNWGQGTLVTVSS
VL: DIQLTQSPSSLSASVGDRVTITCSASQDISNYLNWYQQKPGKAPELVIYYTSNLHSGVPSRFSGSGSGTDYTLTISSLQPEDFATYYCQQYRKLPWTFGQGTKLEIKR
notes: Humanised CA8, heavy chain J9 with light chain M2, human IgG1 kappa; also called CA8 J9M2
In the case of B8, in assay [2], the Kd worked out at 0.515 nM.

B9: CA8 humanised J9M1 (antibody, human IgG1, kappa, V domains shown)
VH: QVQLVQSGAEVKKPGSSVKVSCKGSGYTFTNYWMHWVRQAPGQGLEWIGATYRGHSDTYYNQKFKGRATLTADTSTSTAYMELSSLRSEDTAVYYCTRGAIYDGYDVLDNWGQGTLVTVSS
VL: DIQMTQSPSSLSASVGDRVTITCSASQDISNYLNWYQQKPGKAPKLLIYYTSNLHSGVPSRFSGSGSGTDYTLTISSLQPEDFATYYCQQYRKLPWTFGQGTKLEIKR
notes: Humanised CA8, heavy chain J9 with light chain M1, human IgG1 kappa; also called CA8 J9M1
As for B9, the figures for the Kd in assay [1] and in assay [2] were 0.018 nM and 0.442 nM, respectively. Also, in assay [5], the binding result was “binds”.

B10: CA8 humanised J8M2 (antibody, human IgG1, kappa, V domains shown)
VH: QVQLVQSGAEVKKPGSSVKVSCKASGYTFTNYWMHWVRQAPGQGLEWMGATYRGHSDTYYNQKFKGRVTITADKSTSTAYMELSSLRSEDTAVYYCTRGAIYDGYDVLDNWGQGTLVTVSS
VL: DIQLTQSPSSLSASVGDRVTITCSASQDISNYLNWYQQKPGKAPELVIYYTSNLHSGVPSRFSGSGSGTDYTLTISSLQPEDFATYYCQQYRKLPWTFGQGTKLEIKR
notes: Humanised CA8, heavy chain J8 with light chain M2, human IgG1 kappa; also called CA8 J8M2
Take B10: the Kd in assay [1] came to 0.057 nM; in assay [2], 1.32 nM.

B11: S307118G03 humanised H3L0 (antibody, human IgG1, kappa, V domains shown)
VH: QVQLVQSGAEVKKPGSSVKVSCKASGYTFTDYYMKWVRQAPGQGLEWIGEIYPNNGGITYNQKFKGRATLTVDKSTSTAYMELSSLRSEDTAVYYCANGYEFVYWGQGTLVTVSS
VL: DIQMTQSPSSLSASVGDRVTITCSASQGISNYLNWYQQKPGKAPKLLIYYTSSLHSGVPSRFSGSGSGTDFTLTISSLQPEDFATYYCQQYSKLPWTFGQGTKLEIKR
notes: Humanised, human IgG1 kappa
On to B11, for which the Kd in assay [3] was 5.31 nM. Besides, the binding result in assay [4] is on record as “no binding”.

B12: S307118G03 humanised H2L0 (antibody, human IgG1, kappa, V domains shown)
VH: QVQLVQSGAEVKKPGSSVKVSCKASGYTFTDYYMKWVRQAPGQGLEWMGEIYPNNGGITYNQKFKGRVTITADKSTSTAYMELSSLRSEDTAVYYCANGYEFVYWGQGTLVTVSS
VL: DIQMTQSPSSLSASVGDRVTITCSASQGISNYLNWYQQKPGKAPKLLIYYTSSLHSGVPSRFSGSGSGTDFTLTISSLQPEDFATYYCQQYSKLPWTFGQGTKLEIKR
notes: Humanised, human IgG1 kappa
As for B12, the Kd in assay [3] was found to be 6.36 nM. For the same molecule, in assay [4], the binding result is on record as “no binding”.

B13: S307118G03 H5L0 (antibody, human IgG1, kappa, V domains shown)
VH: QVQLVQSGAEVKKPGSSVKVSCKASGYTFTDYYMKWVRQAPGQGLEWIGEIYPNNGGITYNQKFKGRATLTVDKSTSTAYMELSSLRSEDTAVYYCANGYEFDYWGQGTLVTVSS
VL: DIQMTQSPSSLSASVGDRVTITCSASQGISNYLNWYQQKPGKAPKLLIYYTSSLHSGVPSRFSGSGSGTDFTLTISSLQPEDFATYYCQQYSKLPWTFGQGTKLEIKR
notes: Humanised, human IgG1 kappa; also called S307118G03 humanised H5L0
In the case of B13, the binding result in assay [6] is given as “no binding”.
